The results in this text go back to article PMC10065799, “High-throughput profiling of sequence recognition by tyrosine kinases and SH2 domains using bacterial peptide display” (eLife, 2023).

The target in this assay is human c-Src kinase domain (residues 260-528) (human) (UniProt P12931).

For Ac-GPDECIYDMFPFKKKG-NH2 [Src Consensus peptide Ac-…-NH2], the KM (μM) of phosphorylation, Michaelis-Menten analysis, ADP-Quest assay was 196 µM.
